Each block holds one binder with its values, some of them ahead of it.
Biological target: T1, His-tag fusion human PRMT5 protein (human, UniProt O14744 1-637)
T1 construct: Protein arginine methyltransferase 5 (PRMT5), human; also called His-tagged PRMT5; his-tagged PRMT5; source: E. coli BL21DE3, recombinant; not shown: His-tag, N-terminal, kept
Test: pull-down; GST fusion proteins immobilized on glutathione-Sepharose 4B beads, mixed with His-tag fusion human PRMT5; 4 °C, 2 h; beads washed four times; western blot with anti-His-tag mAb
Settings: both partners purified

T1 sequence (O14744 whole entry, the tested form may be a part): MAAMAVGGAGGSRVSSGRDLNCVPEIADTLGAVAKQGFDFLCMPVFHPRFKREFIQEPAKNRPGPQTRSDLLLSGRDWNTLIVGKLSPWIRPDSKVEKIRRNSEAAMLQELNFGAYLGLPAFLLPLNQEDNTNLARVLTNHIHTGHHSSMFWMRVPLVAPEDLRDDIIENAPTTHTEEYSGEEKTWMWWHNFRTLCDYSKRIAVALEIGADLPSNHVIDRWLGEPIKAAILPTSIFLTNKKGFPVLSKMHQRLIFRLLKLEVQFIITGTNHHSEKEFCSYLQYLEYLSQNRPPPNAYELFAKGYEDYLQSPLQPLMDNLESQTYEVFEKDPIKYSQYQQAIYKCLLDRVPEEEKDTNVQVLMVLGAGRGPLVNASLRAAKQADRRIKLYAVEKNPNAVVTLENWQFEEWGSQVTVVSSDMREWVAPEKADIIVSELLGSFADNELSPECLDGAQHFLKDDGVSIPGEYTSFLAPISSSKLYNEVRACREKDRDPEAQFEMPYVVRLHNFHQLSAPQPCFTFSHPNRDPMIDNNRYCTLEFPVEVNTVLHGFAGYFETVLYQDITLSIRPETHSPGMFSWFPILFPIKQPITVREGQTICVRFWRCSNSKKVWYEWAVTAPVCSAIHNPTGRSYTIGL

- binding result: binds
B1: GST-Smad3 deletion mutant aa 225-425 (domain or fragment)
chain: not shown
notes: PCR product cloned into pGEX6P1 (BamHI, XhoI); cDNA from the pCMV Flag hSmad3 vector (human); source: E. coli BL21DE3, recombinant, immobilized on glutathione-Sepharose 4B beads

- binding result: binds
B2: recombinant full-length GST-Smad3 (natural protein, human, UniProt P84022 1-425, looked up)
chain: MSSILPFTPPIVKRLLGWKKGEQNGQEEKWCEKAVKSLVKKLKKTGQLDELEKAITTQNVNTKCITIPRSLDGRLQVSHRKGLPHVIYCRLWRWPDLHSHHELRAMELCEFAFNMKKDEVCVNPYHYQRVETPVLPPVLVPRHTEIPAEFPPLDDYSHSIPENTNFPAGIEPQSNIPETPPPGYLSEDGETSDHQMNHSMDAGSPNLSPNPMSPAHNNLDLQPVTYCEPAFWCSISYYELNQRVGETFHASQPSMTVDGFTDPSNSERFCLGLLSNVNRNAAVELTRRHIGRGVRLYYIGGEVFAECLSDSAIFVQSPNCNQRYGWHPATVCKIPPGCNLKIFNNQEFAALLAQSVNQGFEAVYQLTRMCTIRMSFVKGWGAEYRRQTVTSTPCWIELHLNGPLQWLDKVLTQMGSPSIRCSSVS
notes: Smad3, full length; the only Smad3 cDNA named is the pCMV Flag hSmad3 vector (human); The methods tell the cloning into pGEX6P1 only for the deletion mutants; the full-length GST construct is not described; also called GST-tagged Smad3; source: E. coli BL21DE3, recombinant, immobilized on glutathione-Sepharose 4B beads

Reference: PMC10951424, “Fibroblast-specific PRMT5 deficiency suppresses cardiac fibrosis and left ventricular dysfunction in male mice” (Nature Communications, 2024)
